This note sets out measurements from patent publication US20190154677.

Like-named read-outs stand apart in the source and are kept apart here.

Data set [1] addresses Hepatitis B surface antigen (HBs Ag) (Hepatitis B virus) (UniProt P03141). To be noted: magnetic bead pulldown with q-PCR, BD buffer, room temperature.
Data set [2] has the same target. The note with it: magnetic bead pulldown with q-PCR, BD buffer, room temperature. The source holds these as a separate data set.

Hepatitis B surface antigen (HBs Ag) (Hepatitis B virus), sequence (P03141 175-400): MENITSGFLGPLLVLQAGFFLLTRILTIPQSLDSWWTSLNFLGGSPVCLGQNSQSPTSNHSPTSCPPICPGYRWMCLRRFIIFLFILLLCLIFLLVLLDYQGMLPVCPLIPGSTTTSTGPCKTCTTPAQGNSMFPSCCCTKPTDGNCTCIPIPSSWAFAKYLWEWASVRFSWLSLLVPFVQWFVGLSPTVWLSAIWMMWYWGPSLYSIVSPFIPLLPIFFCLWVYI

For “AGCAGCACAGAGGTCCCAACCGGAATCTGCACCTCGCGTGCTACCGTGAA [K2-4]”, in data set [1], the equilibrium dissociation constant (Kd) (commonly a measure of binding affinity in units of concentration) turned out to be 31.4 nM.

On to “AGCAGCACAGAGGTCCTGCATCACGAAGCCTGGCAGCGTGCTACCGTGAA [MP-1]”, for which the Kd in data set [2] came to 28.3 nM.
